Measurements taken from the supplement of paper PMC9170038.

Tested on: MS2 coat protein
Assay: apparent KD of MS2 coat protein; designed switch direction (-1 OFF switch, 1 ON switch): -1; higher = weaker reporter binding
Summary of the method: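 An oligonucleotide input, 200 uM small-molecule ligand, or no input was present during titration of SNAP-549-labelled MS2 coat protein, which was doubled from 0.7 or 1.5 nM to 3 µM. Designed RNA switches had been transcribed on Illumina chips by stalled E. coli RNA polymerase. Apparent KD per design is the median over clusters of curves fitted to normalised cluster fluorescence.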

[1] = input ligand: microRNA oligo, concentration not stated
[2] = Eterna round: R95, input ligand: microRNA oligo, concentration not stated

Sequence	apparent KD of MS2 coat protein (input ligand: FMN 200 uM) [nM]	apparent KD of MS2 coat protein (input ligand: none) [nM]	apparent KD of MS2 coat protein [1] [nM]	apparent KD of MS2 coat protein (Eterna round: R95, input ligand: FMN 200 uM) [nM]	apparent KD of MS2 coat protein [2] [nM]	apparent KD of MS2 coat protein (Eterna round: R95, input ligand: none) [nM]
AGCCUAGCAGGAUAUGCCCGGGAUAACAUGAGGAUCACCCAUGUGACUGAUUGAUAUCUUGCAGAAGGGCUAGGGA [JL-EX5-4.06 ViennaUCT mod] (Eterna round: R97, puzzle: Exclusion 5)	187	25.5				
UAUUAGUAAGGAUAUGAGCCGUAGGACGAAAGUCCUACGGCUCAGAAGGUACAUGAGGAUCACCCAUGUUCAUU [Mod of Fisker 5 - Jieux - Exclusion 4] (Eterna round: R97, puzzle: Exclusion 4)	17.7	15.9				
GCACAGUGAGGAUAUACAUGAGGAUCACCCAUGUCCGCCGAUUAAGAGGUAUCAACGUGUAGAAGGUACCAGCG [Eternabot (Original) Solution 25] (Eterna round: R97, puzzle: Exclusion 3)	17.2	18.5				
GUAUAAUGAGUCAGGAUAUUGAUGACGCUAGGACACAAGAAGGGACAUGAGGAUCACCCAUGUUAUUAUGCGGU [Eternabot (L2) Solution 29] (Eterna round: R97, puzzle: Brourd's mod of Exclusion 4)	88.2	63.9				
GGCCGUUUUCGGCCCGGGCGGGCCACAUGAGGAUCACCCAUGUAGGAUAUCGCCGGGUUUCCCGGCGAGAAGGGCAGGGCCCGC [first try] (Eterna round: R96, puzzle: Exclusion NG 3)	13.4	17.5	13.7			
CGUGUACGAGGAUAUAGAUUGGAUGACAUGAGGAUCACCCAUGUGAUCAAUCUAUUUGGUUUAGAAGGUGUACAUG [JR_Ex5_Sub050] (Eterna round: R97, puzzle: Exclusion 5)	14.1	14.8				
CCACGACAUGAGGAUCACCCAUGUGAGGAUAUGGCCUGAAAAGCGUGAGCAGUUUCUAUCAGAAGGCGCGUGGG [salish99_ex1_r4_063] (Eterna round: R97, puzzle: Exclusion 1)	137	49.4				
CUGUACUGAGGAUAUACAUGAGGAUCACCCAUGUUCCAAGGCUAGGAAACUAGCAAAAGUAGAAGGCAGUACAG [Mat - Exclusion 3 - Eli Mod - D55] (Eterna round: R97, puzzle: Exclusion 3)	556	32.7				
CCCAGACUAGGAUAUACAAGCCGUGGCGAGGUGGGCCUGGGACAUGAGGAUCACCCAUGUAGAAGGAGUAGGUC [Eternabot (Original) Solution 31] (Eterna round: R97, puzzle: Exclusion 2)	127	136				
UCACGGGACUGAGGAUAUACAUGAAUUAUUUUUGUAGAAGGCAGAAUGUUAGAUUAUUCACUAUACAUGAGGAUCACCCAUGUU [JR_ExcNG1_Sub022] (Eterna round: R96, puzzle: Exclusion NG 1)			18.8			
AUUUAGAGAGGAUAUAUAUUUUAAAACAUGAGGAUCACCCAUGUAAUUUUAUGGGAGAAAAUAGAAGGCUCAUUUA [JMFs Solution 1] (puzzle: Exclusion 5)				114	205	197
CUGUACUGAGGAUAUACAUGAGGAUCACCCAUGUGUCCUGGCUAGGAAACUAGCAAAGGUAGAAGGCAGUACAG [Mat - Exclusion 3 - Eli Mod - D54] (Eterna round: R97, puzzle: Exclusion 3)	150	18.8				
UUUAUGUCAGGAUAUGAUUAGAUCUACUUCGGUAGAUCUAAUCAGAAGGGACAUGAGGAUCACCCAUGUAGUUU [Ex4 - 3 - 13] (puzzle: Exclusion 4)					119	
CGAUGCUCGAGUCCACAUGAGGAUCACCCAUGUCGAGUUAGCGAGGAUAUCGGAGACACAUAGUAUGAGAAGGCGCGAACCUGA [Ex NG3 #20] (Eterna round: R96, puzzle: Exclusion NG 3)	10	13.6	11.3			
UUGCAGUCGUCAGGAUAUAGUAUUACGGCCUUUCAUUUCUUCAUACAUGAGGAUCACCCAUGUCGCUAGAAGGGAUUAUCGAUU [salish99_ExNG2_r04_106] (Eterna round: R96, puzzle: Exclusion NG 2)	16	23	17.1			
CUUGUUUAUGUAGGAUAUGCCUGGCGUGCCUUUGCAGAAGGACAUGAGGAUCACCCAUGUAACAUGAGGCUCACCCAUGUCGCA [salish99_ExNG1_r04_104] (Eterna round: R96, puzzle: Exclusion NG 1)	376	353	256			
GCACUGCGAGGAUAUACAUGAGGAUCACCCAUGUGUCGGCAGCCAUGUCAGUACAAAUGUAGAAGGCGCGUAAA [EX3 #54] (Eterna round: R97, puzzle: Exclusion 3)	87.5	28.8				

Sequence	apparent KD of MS2 coat protein (input ligand: FMN 200 uM) [nM]	apparent KD of MS2 coat protein (input ligand: none) [nM]	apparent KD of MS2 coat protein [1] [nM]	apparent KD of MS2 coat protein (Eterna round: R95, input ligand: FMN 200 uM) [nM]	apparent KD of MS2 coat protein [2] [nM]	apparent KD of MS2 coat protein (Eterna round: R95, input ligand: none) [nM]
UCACGGGACUGAGGAUAUACAUCAACCAUGGUUGUAGAAGGCAGAAGGUUGGAUCAUACACUAAACAUGAGGAUCACCCAUGUU [JR_ExcNG1_Sub029] (Eterna round: R96, puzzle: Exclusion NG 1)	17.7	21.6	16.8			
GCGCCAUCGUGAGAUGGCGUACCGACAUGAGGAUCACCCAUGUAGGAUAUCGAUUGCUUUGCAGUCGAGAAGGGCGUGAUAAGU [JL ENG3 3.74] (Eterna round: R96, puzzle: Exclusion NG 3)	27.8	29.5	24.7			
GUCAGCUCGUCAGGAUAUACAUCACUGCUUCGGCAGUGUAUUAAGAUCACAUGAGGAUCACCCAUGUAGAAGGGACGAGCUGAC [ENG2/2-B1] (Eterna round: R96, puzzle: Exclusion NG 2)	269	21.9	21.2			
CUCUUGUCAGGAUAUUAUGGACGAUAGCAGGGCUACGUCAGUGAGAAGGGACAUGAGGAUCACCCAUGUAAAAU [Onatbezaes] (puzzle: Exclusion 4)					77.1	
AGCCGUCUAGGAUAUACAUAAGAUCGGCAGUCUCCGUCGAGACAUGAGGAUCACCCAUGUAGAAGGAGGCGGGA [EX2 A.22] (Eterna round: R97, puzzle: Exclusion 2)	208	47.2				
UAACUUCUUGUAAGGAUAUUGGCGCGAAAGCGCACCGAGAAGGUACAUGAGGAUCACCCAUGUGAAAUAAGAAU [Mod of Zala 13 - Jieux - Brourd's Mod of Exclusion 4] (Eterna round: R97, puzzle: Brourd's mod of Exclusion 4)	47.5	27.2				
AUAAAGCAAGGAUAUACAUGAGGAUCACCCAUGUAUGAAAGUUGGCCGCGGUUUAGAUGUAGAAGGUGCAAGGG [EX3 B.8] (Eterna round: R97, puzzle: Exclusion 3)	27.6	28.1				
UUGUUACAUGAGGAUCACCCAUGUGAGGAUAUGGUUAAGUAAUGUAAUGUAAAGUAAUCCAGAAGGCACAUGUU [1st #25] (Eterna round: R97, puzzle: Exclusion 1)	353	196				
GCCGAAAGUGUGAGGAUAUACCUAUGGAAACAUAGGUAGAAGGCACAUGAGGAUCACCCAUGUGGGAAAACGGC [Mat - Exclusion 4 - Eli Mod - D29] (Eterna round: R97, puzzle: Brourd's mod of Exclusion 4)	322	152				
AAAGAAACAUGAGGAUCACCCAUGUCUGAUCCAAUGUUUAGUCAGGAUAUGCGUCCGACUUCGGAGCAGAAGGGAUACAGGUAG [Anlaanma] (Eterna round: R96, puzzle: Exclusion NG 3)	125	356	357			
UGCAUGUGAGGAUAUGUGUACUGUUUUUUGUUUAGAUGUACACAGAAGGCACAUGAGGAUCACCCAUGUAGUAC [Ex4 - 3 - 33] (puzzle: Exclusion 4)					46.1	
GGUCAGAUGGUAGGAUAUCCAUAUCGAGUGACCCUUUCAUAACAUGAGGAUCACCCAUGUCGGUGGGAGAAGGGCCGUACGGUG [salish99_ExNG02_R04_023] (Eterna round: R96, puzzle: Exclusion NG 2)	39.5	48.8	41.2			
UGAUCUAGCGGAGGAUAUACAUGAGGAUCACCCAUGUAAAUCGCUUUACCGUAGUGAAGCAUCAUGUAGAAGGCCGCUAGAUCU [MOD3 ENG2 3.62 by JL] (Eterna round: R96, puzzle: Exclusion NG 2)	59.3	592	480			
AGACGGUGAGGAUAUAGACGCAAUCACAUGAGGAUCACCCAUGUGACACGUGAUGGCUGGUUAGAAGGCGCGAAUC [Eternabot (L1) Solution 37] (Eterna round: R97, puzzle: Exclusion 5)	17.1	17.4				
GUCAGCUCGUGAGGAUAUGUAUAUACAUGAGGAUCACCCAUGUUAGAUCUGCUUCGGCUGUAUAUACAGAAGGCACGAGCUGAC [ENG2/16-A1] (Eterna round: R96, puzzle: Exclusion NG 2)	504	308	382			
GUGUAGUCAGGAUAUACAUAGGAAGAGAAGAGAAGAGAAGGACAUGAGGAUCACCCAUGUAGAAGGGACAGUGU [Excluse me!! 5 - Jieux - Exclusion 2] (puzzle: Exclusion 2)					43.6	
